{
  "source": "the DeepSol protein solubility set",
  "data": [
    {"test": "soluble on expression in E. coli; label from the status in PepcDB or PDB records", "values": [
      {"sequence": "MGSDKIHHHHHHMLSLTEQLNRGPVVSDGAMATELEKRGVATNSALWSATAMLDHPDAIQAVHQSYLDAGAKIMTTNTYQANVPAFEQAGIAAVQARQLIQQAVTIAHTARDASHVTDAVIAGSIGPYGAYLADGSEYTGAYQLTPSAYQDFHRERLALIMAAGVDVLALETMPRLDEVQALVQLITTTWPQQPYWVSFSIKDPQTLCDGTSLAVAAKWVAAQPNVVAVGVNCTTLENIAPALTTLKAAVAVPLIVYPNSGDQYDPVTKTWQETHLSHQFASFVPQWLAAGARIIGGCCRTTPKDIATVARALSVSDSAKL", "soluble on expression in E. coli": "not soluble"},
      {"sequence": "KPGKQIPTLEDAKKELKIPDQDKEQNGNIARQRHVVNAYAVGRIADEEGLFRFQLDDKGKWGNPQLLVKKVRHMKVRYIYVSGCPEDDDAGKEETFKYTDKFDSAQNAVTPAGVEVLLSSGTDTKIAASSDNHIYAYRIDATIRGGNVCANRTL", "soluble on expression in E. coli": "not soluble"},
      {"sequence": "MPRGLILATPQLPPDGTPFSARYDDVYHSTEGGLAQAHHVFLGGNGLPGGWQGKRSFTIVETGFGQGLNFLATWAAWRDDPQRCGRLDFVSVEKHPFDRAGLALVHAQEGALASLAEALRQAWPVPVPGVHRLVFDAGRVTLTLMLGDAETLLPQLSCAADAFYLDGFSPAKNPDLWQPGVFKQLARIARGGATLATYTAAGAVRHGLREAGFEVRKAPGFGRKRDMTVAAFPTHWRTRRGPAEAPVWPERHAIVLGAGLAGCSVAERLAARGWRITLIDEHEAPAGGASAHRAAAMHPHVSIDDSVLSRLSRAGNLLARRHWEALDRAGFATGFHPTGVLQLAEHADDAAEQQRIVQALGFPADFIAWLDAARAADRVGAGVPQGGWWFAQAGWVAPPDICRAALAAAGEAVELRWRTRIESLLRHDAGWRACDAQGNVIAHAPVVVLANSLDAVRLAPLASAALKPVRGQLTDVPVAALEDGVPWPRAVVCGDGYLLPRERGAPTVRVGSSFQPGETDPDARTADHAANLRRLAGLQPAHAAALARVDPARLLGYVGVRCVSANRLPLIGAVADEAAIMAPGFRLRGPHAALPRVPGLYAALAYGSRGLTWSVLGAELLAAQIDGGPLPLESELAAALDPGRFLMRALRHGKHAA", "soluble on expression in E. coli": "soluble"},
      {"sequence": "MADERRCGVCRPLGGPRQPWPAGLLHCSSRAIFASLCMPRIVFAPAIQRHVAMPALDVGAATVAAALQAAFAREPRLRGYLLDDQGSLRRHVALFVDGVQVRDRRGLGDPLQDDSEIYVVQALSGGLEHHHHHH", "soluble on expression in E. coli": "not soluble"},
      {"sequence": "MSLSAMQWERLLDPTRLNDKHGGSREEIGRSPFHKDHDRIVFAGSFRRLGRKTQVHPLTDNDHIHTRLTHSLEVGCVGRSLGMIVGEQLRERLPAWITPADLGVIVQAACLGHDIGNPPFGHAGEYAIRDWFKRAEADGSGLLADLAPAEREDLLTYEGNAQGFRIVTQIEYNQFNGGMRLTAATLGTMLKYPWTVERASRAGKFGCYQSERELLGEVAERLGLLPRGETAWCRHPLAYLVEAADDICYALLDLEDGLEMGILRFDEVAEILIQIAGGAPEGYDGMRARGVSQRRRIATLRGAAMERAVNDVAAVFVAHESALLGGTLSEDLLELCHPDLGWGVGTAKRIARERIFQNERKAKLEIGAYTTLGILLEAFIGAAHELHYSGQSSFKHQRVLALIGENTPKSSWSLYASYRRMLDFIGGMTDHYAVDLAQEMGGRLEGHHHHHH", "soluble on expression in E. coli": "soluble"},
      {"sequence": "MGSDKIHHHHHHMNGLFVLAYAITNLHPGAGRGYGIVDMPVQRDQMGYPIIYSSAFKGPLKALCAGDAINDHGRIDCKKKGECCCLFGSEPEEEESSKGMLNVMDLPLFSVPAPTFDGFVQVTTNYLIDRARNIFEAISHINGYLGSLGNEIKALLDAQGNKSVEVYDTEAKVVNFDPSSFKLLSSLPLFNNRLAISDDKRVIDKSLIIYTRNRLNLLTKVVEEGGLWSEEYIPMGSIFIGGMIIDNVRNKFCDELSKISCDSRLFLHHFSRIFNADKISEDVYLFYLNIGGKESIGKGLMKVFIGV", "soluble on expression in E. coli": "not soluble"},
      {"sequence": "MSLGSMGPAQFVGRQTLATTPMGDVEIGLQERNGQLEVDIIQARGLTAKPGSKTLPAAYIKAYLLENGICIAKKKTKVARKSLDPLYNQVLLFPESPQGKVLQVIVWGNYGRMERKQFMGVARVLLEELDLTTLAVGWYKLFPTSSMVDPATGPLLRQASQLSLESTVGPCGERSEGHHHHHH", "soluble on expression in E. coli": "soluble"},
      {"sequence": "MGSDKIHHHHHHMSHPEPYFQCNDPALSPAERANWIAVLPLGAHEQHGPHLPFETDTIIAQGVVDRLILALPDTLPVTFLPVEPVGYSVEHMDVFGTRTLTFNEAVERWLGIAETLSGQGIRKLMMLNAHGGNSPLMTVVATEARIRFSMLAVATSWTRFGQPDGLIRPEDKAIDIHGGDIETSVMLALRPDLVAMDKAQNFSSRQSEFAARFTHLRAYGPHAFGWKMADLNPLGVAGNASVATAEKGENLLSHAVHGLVELLWDIHDFDIEKAFELPPHSSYMG", "soluble on expression in E. coli": "not soluble"},
      {"sequence": "MFIPVIMAGGSGSRLWPLSRSAFPKQFLSLDSSSQHTMLQATIERLQGLPIAEPIVISNEDHRFIVAEQIRRYGKKSRIILEPAGRNTAPAIALAAFTAIEQEDDPVLLVLAADHFVKNKSAFQAAISQAAQQAEAGKLATFGIVPTTPETGYGYIHRGEEVTQGTYEINSFVEKPQLNIAEQYLASGEYYWNSGCFMFKASVFLNELKQHSPEIYRQCELAMQGLSHDYDFIRVGVEEFLKCPDDSIDYAVMEHTKLGVVVSMDAGWSDVGSWSALWEVSDKDADGNVCQGDAILSGTSNCYIYAPNKLVAAVGLKDIVVVETKDAVLVADKNQVQEVKKIVEHLKAENRAEYREHRERYRPWGKSDAIDKGERYKVNRITVEPGKKQSLQMHYHRAEHWVVVSGTAKVTCEGNVKVITENQSLYIPIGTNHMIENPGKIPLELIEIQSGSYLNEDDVVRFEDK", "soluble on expression in E. coli": "not soluble"},
      {"sequence": "MGSDKIHHHHHHVLADSTGHGLSAAMPIMRVASTFRAMVSKGFSLATLIYELNSKVHRENPDDRFVACIVLEVDFYRKKIHIWNGGMPPVYIKNHLETETVSDHYPVKNIIKFKSTNMALGILPSQTFVADIATVDLPVVGHACLFSDGLIEQYTNENKPFGIETLNSLFIQYASELIPYLTENFKKVFDGKPITDDITVCTLDFERLNEWHQQNNICLARSNMDGEFDWEVKLAGPMLLSAEYLNSLNQFLGMFGFATSFCQRVFTVVAELFSNAIDHGVLKLDSRLKSDPDGFELYHSIRDSSSARLTMNDWVKVSLVWCSITNELHICVADSGQGFKGYKNTVVDIPQLSGRGLSLVKTLSKTYELVSPGNITKVIME", "soluble on expression in E. coli": "not soluble"},
      {"sequence": "MAEVHVRELKGWEEMEEVVALQREVWGRAESDLVPRGLLVAVQDEGGLVAGAFAEGRMVGFVFGFPTKDPALHHSHMLGVLEAYRGTGAALLLKRFQRDWCLARGVRRVVWTFDPMRGVNANFNLRKLGATAKTYLPDHYGPMSGINAGAPSDRLLAEWDL", "soluble on expression in E. coli": "not soluble"},
      {"sequence": "CEGGVDMQQSQVQLQCPLTPPRGLQVSIQGEAVAVRPGEDVLFVVRQEQGDVLTTKYQVDLGDGFKAMYVNLTLTGEPIRHRYESPGIYRVSVRAENTAGHDEAVLFVQV", "soluble on expression in E. coli": "soluble"},
      {"sequence": "MGSDKIHHHHHHMFELHPDSSTPLVNQIIDGLRELIDNQTLKPGAKVPSIRAFAASYSVSTFTVVEAYDRLVAQGLLVSRGNAGFFVNRAAGELLEQHNTEADTSRPTFNSEWYLQQIFEIRQLPYKPGCGWLPNDWMYEDGLRRGLRQVAGSPLELSGYGDPMGLMELRALTAQNLQQELSIVANPAQLMLTHGASQALDLAARTLVRPGDVVLVDDPGYPNLMSILRTQGATLVGVPRTPAGYDLNQLEQLLSHHRPTAFFTQPHLHSPTCSRTPLPQLHRLLQLASQHGFRLVENNLYADMVAEPQPCLASLDHLQQVVYVGSYSKSISPNVRVGYMLANPELMQKLLHLKMRSGLTTSQVMERVVYAAIIDGRWRKHLKRLRQRLAEAHQEVGRHLHRLGFELFTESDEGMYIWTRHPAIPDSAALLDDALEKGIMLGPGQLFMVDAKATGWMRFNVAFSTDPAMWELLEKVLVKHVRRSGM", "soluble on expression in E. coli": "not soluble"},
      {"sequence": "MSSLDNAPLLELDVQEWVNHEGLSNEDLRGKVVVVEVFQMLCPGCVNHGVPQAQKIHRMIDESQVQVIGLHSVFEHHDVMTPEALKVFIDEFGIKFPVAVDMPREGQRIPSTMKKYRLEGTPSIILADRKGRIRQVQFGQVDDFVLGLLLGSLLSETDET", "soluble on expression in E. coli": "soluble"},
      {"sequence": "MGHHHHHHSHMSWLKEVIGTEKAVIAMCHLRALPGDPGFDTRKGMNWVIDRAHDDLMALQNGGVDAVMFSNEFSLPYLTKVRPETTAAMARIIGQLMSEIRVPFGVNVLWDPVASFDLAMATDAKFIREIFTGAYASDFGVWDTNVGETIRHQHRIGAGHVKTLFNIVPEAAVYLGNRDVCSIAKSTVFNNNPDALCVSGLTAGARTDSAILKRVKETVPDTVVLANTGVCLENVEEQLCIADGCVTATTFKKDGVFANFVDQARVAKFMEKVRHIRQ", "soluble on expression in E. coli": "soluble"},
      {"sequence": "MGSDKIHHHHHHMTTSYTITCSRPTNYGAVLQTYGLNTALRKMGVDAKVLDYNPKYYYTSTQPLPIRMVRAVVRFPDLTKGRKVFGKFLEDYVPMSAKTYRTLAEIEADVPQADVYICGSDQIWNCKNKLNGKDDAFFLSFAPAKARKVAYAASIAMPEIPNNQKTRYHRLISDFDAVSVREPSSVPMLEDLGIDNVQSVIDPVFLLERNDWDVIADASDFVPTEDYVLVYGYNRQKDVYAYARRLAKKLGVKVYTIGTAIEDYTLDQDRYFWNASPNTFVNLVRNAKAVVTNSFHGTVFSIVYNKPFHFFTVKQTTNSRMLDLLDSLTLKDRHVVGEELLSNDIDYDRPNQLLAEAKKRSLGFLQTNVASYVSENKPMKG", "soluble on expression in E. coli": "not soluble"},
      {"sequence": "QELPTDLSEVFVDFSKEPLASGSVAQTHRARLLSGQEVIIKIQRPGIDDIVKEDIQLLIKLARHIPKHFISMVDVQEVLENLCETLIKELDFKNEAEAMKRFRANNKRVVCLGVPEVY", "soluble on expression in E. coli": "not soluble"},
      {"sequence": "MVSTLKRDEALFELIALEEKRQREGLELIASENFVSKQVREAVGSVLTNKYAEGYPGARYYGGCEVIDRVESLAIERAKALFGAAWANVQPHSGSQANMAVYMALMEPGDTLMGMDLAAGGHLTHGSRVNFSGKLYKVVSYGVRPDTELIDLEEVRRLALEHRPKVIVAGASAYPRFWDFKAFREIADEVGAYLVVDMAHFAGLVAAGLHPNPLPYAHVVTSTTHKTLRGPRGGLILSNDPELGKRIDKLIFPGIQGGPLEHVIAGKAVAFFEALQPEFKEYSRLVVENAKRLAEELARRGYRIVTGGTDNHLFLVDLRPKGLTGKEAEERLDAVGITVNKNAIPFDPKPPRVTSGIRIGTPAITTRGFTPEEMPLVAELIDRALLEGPSEALREEVRRLALAHPMP", "soluble on expression in E. coli": "soluble"},
      {"sequence": "MKDPKAPIGVFDSGVGGLTVLKALRRLLPREEFLYFGDTARVPYGGKPLAMVRRFAWEIAGFLLRQGVKAIVVACNTASSAALPDLAEDLSVPVFGVVEPVARAVRGFRKVGLIGTQATVESGAYPRYVDLACAKACPLFVPLVEEGLWDDPVALLVARHYLEDAPKDLEALILGCTHYPFLKGAIGAVLPGVALLDSAELTAQEVARALEAEGLLNPEGRGRTFHLVTGDPEAYRALAERLGERVEAVRRVSLEEL", "soluble on expression in E. coli": "soluble"},
      {"sequence": "MAHHHHHHMQQQPRPVVAQYAYIELLPLRYTGPAPPPAPACMDPTPDEQYRRGVAEKRAALKQKEARRQMSSSGSGMLASLKSAVSQAVMTMEKGAADVSTRTESQVRQLEYQYDCDRFNLHFHELAENGEVLLADYRCSAMHSGLRVNGHVQITPHYLCFLAETTSSIAKTTDAVMGVFVAARHPTSANDEPRNRPVGIKQVIALADIVSIQPSVVLESI", "soluble on expression in E. coli": "soluble"},
      {"sequence": "MAVIYKTTAHASAGREGVVQTVDGFTVSLAFPKPGATHQDKNNPEQLFASAYAGCFSQAVRVVLQQHQLQLATQPIVGVSVELHDQDGLFHIKAGVELAITGVDQTTAQTVITAAHAMCPFSRLIKPENFLGLTLNGAKL", "soluble on expression in E. coli": "soluble"}
    ]}
  ]
}
